For assay [1], the target named is phosphorylated SNAP-ADAP fusion protein (ADAP amino acids 570-690) (human) (UniProt O15117). The experiment in a line: MST; SH2 proteins (only partly purified) serially diluted in 1x PBS with 1.75% (v/v) E. coli extract; fluorescent ADAP at 12 nM; 5 min at RT; Monolith NT.115.
The target in assay [2] is site-specifically biotinylated Fyn SH2 domain (UniProt P06241). The experiment in a line: supernatant depletion assay (pull-down titration); biotinylated SH2 domains on streptavidin-coated DynaBeads, washed once and serially diluted in 1x PBS; ADAP at 8 nM (PBS with 0.1% E. coli extract), 10 min at RT; unbound ADAP in the supernatant read by in-gel fluorescence; Kd estimated from the plot.
Chain of site-specifically biotinylated Fyn SH2 domain (P06241 149-246): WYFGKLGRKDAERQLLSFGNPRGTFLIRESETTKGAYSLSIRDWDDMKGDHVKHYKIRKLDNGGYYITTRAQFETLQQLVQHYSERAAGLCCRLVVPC

The Kd is the concentration at which binding is half-saturated.

Chain of phosphorylated SNAP-ADAP fusion protein (ADAP amino acids 570-690) (human) (O15117 570-690): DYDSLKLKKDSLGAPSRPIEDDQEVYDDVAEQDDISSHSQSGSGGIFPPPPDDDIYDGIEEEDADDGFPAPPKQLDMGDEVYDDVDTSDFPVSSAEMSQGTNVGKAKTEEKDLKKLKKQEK

Substance “Fyn SH2 domain without biotin (for MST) (from UniProt P06241 149-246) (domain or fragment)” returned a dissociation constant (Kd) in assay [1] of 1 µM.

For the substance “Src SH2 domain without biotin (for MST) (from UniProt P12931 151-248) (domain or fragment)”, the Kd in assay [1] was found to be 1 µM.

Turning to “phosphorylated SNAP-ADAP fusion protein (ADAP amino acids 570-690) (from UniProt O15117 570-690) (domain or fragment)”, the Kd in assay [2] was 0.3 µM.

The values above are taken from article PMC3858276.
